Experimental findings from US20200316226A1 are described below.

Experiment [1] has as its target Discoidin domain receptor tyrosine kinase 2 (DDR2) on neonatal rat cardiac fibroblasts (rat). The experiment in a line: cell-based or functional assay.
Experiment [2] addresses CD68 on macrophages of mouse splenocytes (mouse) (UniProt P31996). The experiment is described as follows: cell-based or functional assay.
Sequence of UniProt P31996 (P31996 21-326): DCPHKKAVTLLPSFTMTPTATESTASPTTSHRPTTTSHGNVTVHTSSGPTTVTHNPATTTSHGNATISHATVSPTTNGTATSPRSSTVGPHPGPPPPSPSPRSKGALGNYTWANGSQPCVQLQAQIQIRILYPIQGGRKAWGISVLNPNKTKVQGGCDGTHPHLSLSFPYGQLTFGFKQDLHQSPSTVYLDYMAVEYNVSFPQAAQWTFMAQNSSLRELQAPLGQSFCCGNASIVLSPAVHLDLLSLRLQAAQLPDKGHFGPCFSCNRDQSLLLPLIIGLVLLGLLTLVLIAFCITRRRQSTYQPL

In experiment [1], “biotinylated IgG isotype antibody (bio-IgG) control (rabbit IgG isotype control, Abcam cat # ab200208)” showed a rate of uptake of control-cloaked CDCexo by rat cardiac fibroblasts, flow cytometry of 5% and an uptake of bio-IgG/FITC CDC-EV by neonatal rat cardiac fibroblasts after twelve hours, flow cytometry of 5%.

In experiment [2], “biotinylated CD68 monoclonal antibody (bio-CD68), clone FA-11 (ThermoFisher)” gave a macrophage uptake of FITC:CD68-cloaked CDCexo by FACS, 5 minutes of incubation of 91% and a macrophage uptake of FITC:CD68-cloaked CDCexo by FACS, 15 minutes of incubation of 93%.
